These results are taken from patent US20110274697A1, “NOVEL USES” (priority 2009, published 2011).

In test [1] the target is T1, CD20 on JVM-3 cells (Homo sapiens, UniProt P11836).
T1 construct: medium level expression profile of CD20 on JVM-3 cells; endogenous in cells; host or cells: JVM-3 cells
T1 sequence (P11836 1-297): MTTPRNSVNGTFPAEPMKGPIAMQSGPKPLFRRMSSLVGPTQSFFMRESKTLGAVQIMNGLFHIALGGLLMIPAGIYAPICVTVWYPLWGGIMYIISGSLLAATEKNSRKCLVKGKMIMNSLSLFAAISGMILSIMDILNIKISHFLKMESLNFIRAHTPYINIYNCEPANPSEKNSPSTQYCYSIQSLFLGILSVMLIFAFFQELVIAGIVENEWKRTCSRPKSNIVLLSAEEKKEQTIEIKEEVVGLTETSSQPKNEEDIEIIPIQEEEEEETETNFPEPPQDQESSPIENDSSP
Put plainly: FACS binding of fluorescently labeled anti-CD20 antibodies to JVM-3 cells. The following applies: fluorescently labeled antibody, BD FACSCanto, FIG. 2. The procedure:
One microgram of each antibody was prepared in PBS and five microliters of the Zenon human IgG labeling reagent (Component A) was added to the antibody solution. The mixture was incubated for five minutes at room temperature and then five microliters of the Zenon blocking reagent (Component B) was added to the reaction mixture. After another five minutes at room temperature the complexes were ready to be used. 5×10^6 cells/ml of viable JVM-3 cells were resuspended in PBS. 100 ul of the cells were added to each tube. 10 ul of human IgG was added to block non-specific binding. The cells and human IgG were incubated for 10 minutes. […] The mixture was incubated for an additional 30 minutes on ice in the dark. Then 500 ul of PBS was added to the cells and they were centrifuged for 5 minutes at 1000 rpm. The supernatant was removed and 500 ul of PBS was added and the cells were centrifuged again. Again the supernatant was removed and the cells resuspended in 300 ul of PBS. The cells were analyzed on a BD FACSCanto.

The subject of test [2] is cells with low CD20 density. The following applies: compared to rituximab; especially in cells with low CD20 density, as in CLL; cited from earlier work.

Turning to “ofatumumab: new generation, human monoclonal antibody that targets a membrane proximal, small loop epitope of the CD20 molecule; 2F2 antibody in WO2004/035607”, the “receptor bound on the cell surface” value in test [1] is “bound more receptors on the cell surface than rituxan antibody did”. Further, in test [2], the “induction of tumor cell lysis by CDC activity” value was “superior induction of tumor cell lysis by CDC”.
